Results taken from PMC3689539 (Structure (London, England : 1993), 2009).

Target: the molecule itself
Experiment: SEC

B1: full length unphosphorylated wild-type MEK6 (natural protein, human, UniProt P52564 1-334, looked up)
chain: MSQSKGKKRNPGLKIPKEAFEQPQTSSTPPRDLDSKACISIGNQNFEVKADDLEPIMELGRGAYGVVEKMRHVPSGQIMAVKRIRATVNSQEQKRLLMDLDISMRTVDCPFTVTFYGALFREGDVWICMELMDTSLDKFYKQVIDKGQTIPEDILGKIAVSIVKALEHLHSKLSVIHRDVKPSNVLINALGQVKMCDFGISGYLVDSVAKTIDAGCKPYMAPERINPELNQKGYSVKSDIWSLGITMIELAILRFPYDSWGTPFQQLKQVVEEPSPQLPADKFSAEFVDFTSQCLKKNSKERPTYPELMQHPFFTLHESKGTDVASFVKLILGD
  stoichiometry N: 2
